# Publication PMC10629159
# B1: Epithelial membrane protein 3 (EMP3): N47A (protein)
# parent chain: MSLLLLVVSALHILILILLFVATLDKSWWTLPGKESLNLWYDCTWNNDTKTWACSNVSENGWLKAVQVLMVLSLILCCLSFILFMFQLYTMRRGGLFYATGLCQLCTSVAVFTGALIYAIHAEEILEKHPRGGSFGYCFALAWVAFPLALVSGIIYIHLRKRE
# Experiment: BioID2 proximity profile; Myc immunofluorescence
# Details: glycan lost; control: EMP3 WT bait
protein,measurement,value
B1,localisation_or_trafficking,no change
